Assay results taken from publication PMC4561382, “Aven recognition of RNA G-quadruplexes regulates translation of the mixed lineage leukemia protooncogenes”.

Legend:
Aven DiRGG peptide = target: T1, Aven DiRGG peptide (human, UniProt Q9NQS1); experiment: fluorescence plate binding (immobilized peptide); K+-folded RNA; joint range (173-200 in author response); RNA folded in 10 mM Tris-acetate pH 7.7, 200 mM K-acetate, 5 mM Mg-acetate (75 C 10 min, 21 C 5 min); peptide assay 1 h at room temperature, washes in this buffer; pull-down 100 nM RNA in cell lysate with 2 mg/ml heparin, 1 h on ice, beads 30 min at 4 C; conditions: tags: N-terminal biotin; G4
T1 chain: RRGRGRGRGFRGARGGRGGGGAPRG

Aven TriRG peptide = target: T2, Aven TriRG peptide (human, UniProt Q9NQS1); experiment: fluorescence plate binding (immobilized peptide); K+-folded RNA; range given jointly for TriRG and TriRGme; RNA folded in 10 mM Tris-acetate pH 7.7, 200 mM K-acetate, 5 mM Mg-acetate (75 C 10 min, 21 C 5 min); peptide assay 1 h at room temperature, washes in this buffer; pull-down 100 nM RNA in cell lysate with 2 mg/ml heparin, 1 h on ice, beads 30 min at 4 C; conditions: tags: N-terminal biotin; G4
T2 chain: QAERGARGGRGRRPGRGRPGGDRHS

B1: sc1 G4 (fluorescein) (structured_RNA)
RNA: GCUGCGGUGUGGAAGGAGUGGUCGGGUUGCGCAGCG
Kd (Aven DiRGG peptide): ~187 nM | Kd (Aven TriRG peptide): ~84.8 nM
